T1: Chlamydomonas IFT81/74_(128-C) heterodimer within the IFT-B1 nonamer (Chlamydomonas reinhardtii, UniProt Q68RJ5 1-683; Q6RCE1 128-641)
T1 sequence (looked up) 1: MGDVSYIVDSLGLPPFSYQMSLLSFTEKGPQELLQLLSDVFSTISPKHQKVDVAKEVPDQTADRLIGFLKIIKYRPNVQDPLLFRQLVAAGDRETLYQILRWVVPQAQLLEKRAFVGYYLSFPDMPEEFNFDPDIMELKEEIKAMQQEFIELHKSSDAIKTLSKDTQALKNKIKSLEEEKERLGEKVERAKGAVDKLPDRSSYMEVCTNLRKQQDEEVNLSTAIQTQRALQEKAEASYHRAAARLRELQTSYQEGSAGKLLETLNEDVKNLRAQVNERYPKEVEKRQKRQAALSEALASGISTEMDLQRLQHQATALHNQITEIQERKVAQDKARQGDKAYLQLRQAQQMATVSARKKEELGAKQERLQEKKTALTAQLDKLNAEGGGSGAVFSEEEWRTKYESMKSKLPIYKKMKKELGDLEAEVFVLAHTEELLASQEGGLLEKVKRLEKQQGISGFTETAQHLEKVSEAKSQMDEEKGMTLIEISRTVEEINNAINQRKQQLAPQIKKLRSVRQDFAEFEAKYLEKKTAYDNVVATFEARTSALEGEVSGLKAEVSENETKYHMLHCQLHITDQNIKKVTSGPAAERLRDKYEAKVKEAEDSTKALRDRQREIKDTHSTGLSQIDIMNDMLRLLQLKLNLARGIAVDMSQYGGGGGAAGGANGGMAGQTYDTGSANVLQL
T1 sequence (looked up) 2: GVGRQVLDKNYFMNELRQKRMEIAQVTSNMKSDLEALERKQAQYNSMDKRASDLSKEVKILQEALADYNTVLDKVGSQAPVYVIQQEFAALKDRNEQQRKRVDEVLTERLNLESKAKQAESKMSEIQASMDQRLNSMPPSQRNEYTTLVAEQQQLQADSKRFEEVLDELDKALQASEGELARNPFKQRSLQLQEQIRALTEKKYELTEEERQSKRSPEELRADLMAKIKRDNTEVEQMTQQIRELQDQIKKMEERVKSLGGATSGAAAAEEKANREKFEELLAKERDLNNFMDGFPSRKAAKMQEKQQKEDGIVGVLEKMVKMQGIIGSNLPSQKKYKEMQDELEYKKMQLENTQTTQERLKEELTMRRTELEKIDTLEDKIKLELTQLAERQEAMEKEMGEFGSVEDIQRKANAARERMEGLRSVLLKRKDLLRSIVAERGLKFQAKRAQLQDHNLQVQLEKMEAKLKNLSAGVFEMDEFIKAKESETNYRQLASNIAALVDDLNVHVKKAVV

T2: Chlamydomonas IFT81 (Chlamydomonas reinhardtii, UniProt Q68RJ5 1-683)
T2 sequence (looked up): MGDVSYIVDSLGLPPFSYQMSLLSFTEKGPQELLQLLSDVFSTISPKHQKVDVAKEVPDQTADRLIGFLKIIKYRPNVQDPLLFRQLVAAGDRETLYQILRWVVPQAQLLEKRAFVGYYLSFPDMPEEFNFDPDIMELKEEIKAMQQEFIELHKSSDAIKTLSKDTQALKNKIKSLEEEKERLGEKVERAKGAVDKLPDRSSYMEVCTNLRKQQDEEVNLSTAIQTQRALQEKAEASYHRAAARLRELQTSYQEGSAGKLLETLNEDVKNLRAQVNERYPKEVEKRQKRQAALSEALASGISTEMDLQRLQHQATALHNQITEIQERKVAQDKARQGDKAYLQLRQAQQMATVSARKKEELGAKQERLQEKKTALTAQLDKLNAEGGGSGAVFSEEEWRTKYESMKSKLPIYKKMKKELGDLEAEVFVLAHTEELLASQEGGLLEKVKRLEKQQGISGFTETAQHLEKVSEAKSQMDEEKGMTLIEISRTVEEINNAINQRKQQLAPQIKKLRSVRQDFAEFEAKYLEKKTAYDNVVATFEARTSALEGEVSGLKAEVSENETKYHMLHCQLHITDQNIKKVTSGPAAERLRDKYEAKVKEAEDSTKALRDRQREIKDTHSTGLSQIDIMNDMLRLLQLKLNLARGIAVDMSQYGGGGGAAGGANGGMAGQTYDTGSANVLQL

T3: CrIFT172_(1-968) (Chlamydomonas reinhardtii, UniProt Q5DM57 1-968)
T3 sequence (looked up): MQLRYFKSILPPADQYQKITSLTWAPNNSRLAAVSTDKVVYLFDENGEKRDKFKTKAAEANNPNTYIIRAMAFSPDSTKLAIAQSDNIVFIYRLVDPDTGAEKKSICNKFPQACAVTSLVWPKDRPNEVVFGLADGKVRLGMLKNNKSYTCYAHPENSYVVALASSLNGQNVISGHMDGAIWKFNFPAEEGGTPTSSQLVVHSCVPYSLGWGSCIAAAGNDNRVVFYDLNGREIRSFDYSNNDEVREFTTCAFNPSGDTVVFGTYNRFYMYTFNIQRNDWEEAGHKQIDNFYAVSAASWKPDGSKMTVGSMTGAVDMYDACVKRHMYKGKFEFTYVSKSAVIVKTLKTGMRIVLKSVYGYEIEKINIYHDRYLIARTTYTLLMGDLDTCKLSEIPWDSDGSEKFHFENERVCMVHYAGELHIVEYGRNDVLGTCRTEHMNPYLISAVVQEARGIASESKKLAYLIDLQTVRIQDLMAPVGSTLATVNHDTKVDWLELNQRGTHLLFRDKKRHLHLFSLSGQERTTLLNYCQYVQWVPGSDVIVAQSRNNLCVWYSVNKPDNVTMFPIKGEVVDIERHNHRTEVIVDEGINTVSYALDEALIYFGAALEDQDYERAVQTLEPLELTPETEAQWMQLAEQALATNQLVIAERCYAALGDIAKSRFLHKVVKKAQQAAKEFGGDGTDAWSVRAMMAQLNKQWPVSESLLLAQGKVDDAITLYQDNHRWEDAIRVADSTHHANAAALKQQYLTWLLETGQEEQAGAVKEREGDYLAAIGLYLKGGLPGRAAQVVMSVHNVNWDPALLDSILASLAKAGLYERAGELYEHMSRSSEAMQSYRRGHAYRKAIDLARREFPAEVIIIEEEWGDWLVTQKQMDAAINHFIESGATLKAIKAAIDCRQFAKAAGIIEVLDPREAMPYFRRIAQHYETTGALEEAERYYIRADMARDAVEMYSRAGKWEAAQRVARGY

B1: Chlamydomonas IFT74_(128-C) (domain or fragment, Chlamydomonas reinhardtii, UniProt Q6RCE1 128-641, looked up)
chain: GVGRQVLDKNYFMNELRQKRMEIAQVTSNMKSDLEALERKQAQYNSMDKRASDLSKEVKILQEALADYNTVLDKVGSQAPVYVIQQEFAALKDRNEQQRKRVDEVLTERLNLESKAKQAESKMSEIQASMDQRLNSMPPSQRNEYTTLVAEQQQLQADSKRFEEVLDELDKALQASEGELARNPFKQRSLQLQEQIRALTEKKYELTEEERQSKRSPEELRADLMAKIKRDNTEVEQMTQQIRELQDQIKKMEERVKSLGGATSGAAAAEEKANREKFEELLAKERDLNNFMDGFPSRKAAKMQEKQQKEDGIVGVLEKMVKMQGIIGSNLPSQKKYKEMQDELEYKKMQLENTQTTQERLKEELTMRRTELEKIDTLEDKIKLELTQLAERQEAMEKEMGEFGSVEDIQRKANAARERMEGLRSVLLKRKDLLRSIVAERGLKFQAKRAQLQDHNLQVQLEKMEAKLKNLSAGVFEMDEFIKAKESETNYRQLASNIAALVDDLNVHVKKAVV

Experiments:
[1] = target: T1, Chlamydomonas IFT81/74_(128-C) …; assay: cross-linking
Chlamydomonas IFT81 = target: T2, Chlamydomonas IFT81; assay: cross-linking
[2] = target: B1; assay: cross-linking
CrIFT172_(1-968) = target: T3, CrIFT172_(1-968); assay: pull-down

Row | Binder | binding result [1] | binding result (Chlamydomonas IFT81) | further results
1 | Chlamydomonas IFT27 (natural protein, Chlamydomonas reinhardtii) MVKKEVKPIDITATLRCKVAVVGEATVGKSALISMFTSKGSKFLKDYAMTSGVEVVVAPVTIPDTTVSVELFLLDTAGSDLYKEQISQYWNGVYYAILVFDVSSMESFESCKAWFELLKSARPDRERPLRAVLVANKTDLPPQRHQVRLDMAQDWATTNTLDFFDVSANPPGKDADAPFLSIATTFYRNYEDKVAAFQDACRNY | binds |  | 
2 | Chlamydomonas IFT46_(188-319) (domain or fragment, Chlamydomonas reinhardtii, UniProt A2T2X4 188-319, looked up) QLRQLSKEAPGAKADMVGRLEHTDENKAKKIQQWIASINDIHKAKPAATVNYSKRMPEIEALMQEWPPEVETFLKTMHMPSGDVELDIKTYARLVCTLLDIPVYDDPVESLHVLFTLYLEFKNNPIFRQHME |  | binds | binding result [2]: binds
3 | GST-tagged CrIFT57_(1-234) (domain or fragment, Chlamydomonas reinhardtii, UniProt Q2XQY7 1-234, looked up) MSSKRGGRSSLAKAPEEAVNGEAFAPEASPPPPGDDGDAGGEDGGAPAPPPPPATKGGPVAVGRSLEIQTTPDVCMEMLADKLKLLNYEADFCRKKKPYRKPLSRLYFAVPLANSSEQFFYFTSLATWLLGLAGVELPAPKEFDDPNLTCQNILGAVKKLGFAPPSYHPTKLTVGNGKEVVGVLDGLVDFVLERRHHKYSRPAYGNDGQPEEGVQLDDEAEAAAMEGADELAMP |  |  | binding result (CrIFT172_(1-968)): binds
4 | Chlamydomonas IFT25_(1-136) (domain or fragment, Chlamydomonas reinhardtii, UniProt B8LIX8 1-136, looked up) MKDYAREENGGLVVMASCSDERFPPENMLDGKDNTFWVTTGMFPQEFVLRLESCIRVSKITTLSLNVRKLAVEKCDQDKPDQFEKVFEVELANRGDRLQTEVHQVNIRAKYLKFILLQGHGEFATVNRVSVVGGDD | binds |  | 
5 | B1 |  | binds | 
